Test results taken from article PMC9352680, “A comprehensive thermodynamic model for RNA binding by the Saccharomyces cerevisiae Pumilio protein PUF4”.

T1: PUF4 RNA-binding domain (Saccharomyces cerevisiae, UniProt P25339 537-888)
T1 sequence: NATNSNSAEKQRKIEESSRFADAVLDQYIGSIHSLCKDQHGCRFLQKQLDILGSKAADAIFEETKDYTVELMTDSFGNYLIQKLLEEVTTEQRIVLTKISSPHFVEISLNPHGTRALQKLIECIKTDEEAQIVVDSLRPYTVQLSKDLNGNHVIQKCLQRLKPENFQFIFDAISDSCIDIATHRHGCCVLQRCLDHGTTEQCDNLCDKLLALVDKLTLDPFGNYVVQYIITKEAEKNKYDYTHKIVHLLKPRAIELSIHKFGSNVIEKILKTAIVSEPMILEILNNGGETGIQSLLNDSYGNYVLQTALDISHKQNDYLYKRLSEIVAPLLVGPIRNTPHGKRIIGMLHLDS


What follows are binders tested against T1, PUF4 RNA-binding domain (assay: Mg; RNA-MaP; 20 mM Na-HEPES pH 7.4, 30 mM KOAc, 0.75 mM MgCl2, 0.1% Tween-20, 5% glycerol, 0.1 mg/mL BSA, 2 mM DTT; 25 C; 0.0125-409.6 nM protein). Settings: tags: N-His6-TEV cleaved; C-SNAP kept, Cy3B-labelled; label: tethered on chip by stalled RNA polymerase.

Binder	Kd [nM]
ACAAACCGACACUAUUAUUACAAAC (ssRNA) [Id_ii_S3_P4E.4_K4.3_C4.2_[T-1G]_H4.3_A4.1_F4.1_T4.2_[G10T]]	> 2300
UCUCUUUGUAUUCUUGUCUCUU (ssRNA) [Ib_S1_P5E.1_K5.1_C5.1_H5.1_A5.1_[A7C]_F5.1_[A10G]_T5.1]	20.4
ACAAACCGACACUAUUACCACAAAC (ssRNA) [Id_ii_S3_P4E.4_K4.3_C4.2_[T-1G]_H4.3_A4.1_F4.1_T4.2_[G10C]_[T11C]]	> 2300
ACAAACAAUAUAUAUUAAAACAAAC (ssRNA) [Id_ii_S3_P4E.3_K4.2_C4.2_[C-2A]_[T-1A]_H4.2_A4.1_F4.1_T4.2_[G10A]_[T11A]]	108
ACAAACCAUAUAUAUUACCACAAAC (ssRNA) [Id_ii_S3_P4E.3_K4.2_C4.2_[T-1A]_H4.2_A4.1_F4.1_T4.2_[G10C]_[T11C]]	32.1
ACAAACAUUAUAUAUUACUACAAAC (ssRNA) [Id_ii_S3_P4E.3_K4.2_C4.2_[C-2A]_H4.2_A4.1_F4.1_T4.2_[G10C]]	21.1
ACAAACAAACACUAUUAACACAAAC (ssRNA) [Id_ii_S3_P4E.4_K4.3_C4.2_[C-2A]_[T-1A]_H4.3_A4.1_F4.1_T4.2_[G10A]_[T11C]]	> 2300
ACAAACAGACACUAUUAGAACAAAC (ssRNA) [Id_ii_S3_P4E.4_K4.3_C4.2_[C-2A]_[T-1G]_H4.3_A4.1_F4.1_T4.2_[T11A]]	> 2300
ACAAACCUUAUAUAUUACUACAAAC (ssRNA) [Id_ii_S3_P4E.3_K4.2_C4.2_H4.2_A4.1_F4.1_T4.2_[G10C]]	13.3
ACAAACACACACUAUUAUUACAAAC (ssRNA) [Id_ii_S3_P4E.4_K4.3_C4.2_[C-2A]_[T-1C]_H4.3_A4.1_F4.1_T4.2_[G10T]]	> 2300
ACAAACCCUAUAUAUUACUACAAAC (ssRNA) [Id_ii_S3_P4E.3_K4.2_C4.2_[T-1C]_H4.2_A4.1_F4.1_T4.2_[G10C]]	18.4
ACAAACUGACACUAUUAACACAAAC (ssRNA) [Id_ii_S3_P4E.4_K4.3_C4.2_[C-2T]_[T-1G]_H4.3_A4.1_F4.1_T4.2_[G10A]_[T11C]]	> 2300
ACAAACCCUAUAUAUUACGACAAAC (ssRNA) [Id_ii_S3_P4E.3_K4.2_C4.2_[T-1C]_H4.2_A4.1_F4.1_T4.2_[G10C]_[T11G]]	16.6
ACAAACAAUAUAUAUUAGCACAAAC (ssRNA) [Id_ii_S3_P4E.3_K4.2_C4.2_[C-2A]_[T-1A]_H4.2_A4.1_F4.1_T4.2_[T11C]]	11.9
ACAAACUCACACUAUUAGUACAAAC (ssRNA) [Id_ii_S3_P4E.4_K4.3_C4.2_[C-2T]_[T-1C]_H4.3_A4.1_F4.1_T4.2]	> 2300
ACAAACAUACACUAUUAAAACAAAC (ssRNA) [Id_ii_S3_P4E.4_K4.3_C4.2_[C-2A]_H4.3_A4.1_F4.1_T4.2_[G10A]_[T11A]]	1130
ACAAACAUACACUAUUAAUACAAAC (ssRNA) [Id_ii_S3_P4E.4_K4.3_C4.2_[C-2A]_H4.3_A4.1_F4.1_T4.2_[G10A]]	740
ACAAACAUUAUAUAUUAUCACAAAC (ssRNA) [Id_ii_S3_P4E.3_K4.2_C4.2_[C-2A]_H4.2_A4.1_F4.1_T4.2_[G10T]_[T11C]]	19.4
UCUCUUUGUAUUGUUUUCUCUU (ssRNA) [Ic_S1_P5E.1_K5.1_C5.1_H5.1_A5.1_[A7G]_F5.1_[A10T]_T5.1]	42.9
ACAAACAUACACUAUUAUAACAAAC (ssRNA) [Id_ii_S3_P4E.4_K4.3_C4.2_[C-2A]_H4.3_A4.1_F4.1_T4.2_[G10T]_[T11A]]	902
ACAAACGUACACUAUUAGCACAAAC (ssRNA) [Id_ii_S3_P4E.4_K4.3_C4.2_[C-2G]_H4.3_A4.1_F4.1_T4.2_[T11C]]	70.4

Binder	Kd [nM]
ACAAACAAACACUAUUAGCACAAAC (ssRNA) [Id_ii_S3_P4E.4_K4.3_C4.2_[C-2A]_[T-1A]_H4.3_A4.1_F4.1_T4.2_[T11C]]	> 2300
UCUCUUUGUAUUCUUCUCUCUU (ssRNA) [Ib_S1_P5E.1_K5.1_C5.1_H5.1_A5.1_[A7C]_F5.1_[A10C]_T5.1]	36.4
ACAAACCUUAUAUAUUAGUACAAAC (ssRNA) [If_S3_P4E.3_K4.2_C4.2_H4.2_A4.1_F4.1_T4.2]	3.71
ACAAACAAACACUAUUAAGACAAAC (ssRNA) [Id_ii_S3_P4E.4_K4.3_C4.2_[C-2A]_[T-1A]_H4.3_A4.1_F4.1_T4.2_[G10A]_[T11G]]	> 2300
ACAAACUGACACUAUUACGACAAAC (ssRNA) [Id_ii_S3_P4E.4_K4.3_C4.2_[C-2T]_[T-1G]_H4.3_A4.1_F4.1_T4.2_[G10C]_[T11G]]	> 2300
ACAAACGUACACUAUUAUCACAAAC (ssRNA) [Id_ii_S3_P4E.4_K4.3_C4.2_[C-2G]_H4.3_A4.1_F4.1_T4.2_[G10T]_[T11C]]	39.9
ACAAACAUACACUAUUACCACAAAC (ssRNA) [Id_ii_S3_P4E.4_K4.3_C4.2_[C-2A]_H4.3_A4.1_F4.1_T4.2_[G10C]_[T11C]]	740
ACAAACGCACACUAUUACUACAAAC (ssRNA) [Id_ii_S3_P4E.4_K4.3_C4.2_[C-2G]_[T-1C]_H4.3_A4.1_F4.1_T4.2_[G10C]]	> 2300
ACAAACUUACACUAUUAGAACAAAC (ssRNA) [Id_ii_S3_P4E.4_K4.3_C4.2_[C-2T]_H4.3_A4.1_F4.1_T4.2_[T11A]]	> 2300
ACAAACCCUAUAUAUUAUUACAAAC (ssRNA) [Id_ii_S3_P4E.3_K4.2_C4.2_[T-1C]_H4.2_A4.1_F4.1_T4.2_[G10T]]	13.3
UCUCUUUGUAUUUUUGUCUCUU (ssRNA) [Ib_S1_P5E.1_K5.1_C5.1_H5.1_A5.1_[A7T]_F5.1_[A10G]_T5.1]	13.7
UCUCUUUGUAUUGUUCUCUCUU (ssRNA) [Ib_S1_P5E.1_K5.1_C5.1_H5.1_A5.1_[A7G]_F5.1_[A10C]_T5.1]	45.8
ACAAACUAACACUAUUACGACAAAC (ssRNA) [Id_ii_S3_P4E.4_K4.3_C4.2_[C-2T]_[T-1A]_H4.3_A4.1_F4.1_T4.2_[G10C]_[T11G]]	> 2300
ACAAACAUUAUAUAUUACAACAAAC (ssRNA) [Id_ii_S3_P4E.3_K4.2_C4.2_[C-2A]_H4.2_A4.1_F4.1_T4.2_[G10C]_[T11A]]	27.7
ACAAACUCACACUAUUAAAACAAAC (ssRNA) [Id_ii_S3_P4E.4_K4.3_C4.2_[C-2T]_[T-1C]_H4.3_A4.1_F4.1_T4.2_[G10A]_[T11A]]	> 2300
ACAAACUGACACUAUUAUCACAAAC (ssRNA) [Id_ii_S3_P4E.4_K4.3_C4.2_[C-2T]_[T-1G]_H4.3_A4.1_F4.1_T4.2_[G10T]_[T11C]]	> 2300
ACAAACGUACACUAUUAACACAAAC (ssRNA) [Id_ii_S3_P4E.4_K4.3_C4.2_[C-2G]_H4.3_A4.1_F4.1_T4.2_[G10A]_[T11C]]	39.8
ACAAACCUUAUAUAUUAACACAAAC (ssRNA) [Id_ii_S3_P4E.3_K4.2_C4.2_H4.2_A4.1_F4.1_T4.2_[G10A]_[T11C]]	21.6
ACAAACUCACACUAUUAUUACAAAC (ssRNA) [Id_ii_S3_P4E.4_K4.3_C4.2_[C-2T]_[T-1C]_H4.3_A4.1_F4.1_T4.2_[G10T]]	> 2300
ACAAACACACACUAUUAACACAAAC (ssRNA) [Id_ii_S3_P4E.4_K4.3_C4.2_[C-2A]_[T-1C]_H4.3_A4.1_F4.1_T4.2_[G10A]_[T11C]]	> 2300
ACAAACUUACACUAUUAUAACAAAC (ssRNA) [Id_ii_S3_P4E.4_K4.3_C4.2_[C-2T]_H4.3_A4.1_F4.1_T4.2_[G10T]_[T11A]]	1640

Binder	Kd [nM]
ACAAACCCUAUAUAUUAAUACAAAC (ssRNA) [Id_ii_S3_P4E.3_K4.2_C4.2_[T-1C]_H4.2_A4.1_F4.1_T4.2_[G10A]]	14
ACAAACCUUAUAUAUUAAUACAAAC (ssRNA) [Id_ii_S3_P4E.3_K4.2_C4.2_H4.2_A4.1_F4.1_T4.2_[G10A]]	14
ACAAACUUACACUAUUAAAACAAAC (ssRNA) [Id_ii_S3_P4E.4_K4.3_C4.2_[C-2T]_H4.3_A4.1_F4.1_T4.2_[G10A]_[T11A]]	> 2300
ACAAACAUACACUAUUAACACAAAC (ssRNA) [Id_ii_S3_P4E.4_K4.3_C4.2_[C-2A]_H4.3_A4.1_F4.1_T4.2_[G10A]_[T11C]]	1470
ACAAACAUACACUAUUAGAACAAAC (ssRNA) [Id_ii_S3_P4E.4_K4.3_C4.2_[C-2A]_H4.3_A4.1_F4.1_T4.2_[T11A]]	846
ACAAACCCUAUAUAUUAACACAAAC (ssRNA) [Id_ii_S3_P4E.3_K4.2_C4.2_[T-1C]_H4.2_A4.1_F4.1_T4.2_[G10A]_[T11C]]	25.9
ACAAACUGACACUAUUAUGACAAAC (ssRNA) [Id_ii_S3_P4E.4_K4.3_C4.2_[C-2T]_[T-1G]_H4.3_A4.1_F4.1_T4.2_[G10T]_[T11G]]	> 2300
ACAAACACACACUAUUACUACAAAC (ssRNA) [Id_ii_S3_P4E.4_K4.3_C4.2_[C-2A]_[T-1C]_H4.3_A4.1_F4.1_T4.2_[G10C]]	> 2300
ACAAACUCACACUAUUAACACAAAC (ssRNA) [Id_ii_S3_P4E.4_K4.3_C4.2_[C-2T]_[T-1C]_H4.3_A4.1_F4.1_T4.2_[G10A]_[T11C]]	> 2300
UCUCUUUGUAUUUUUCUCUCUU (ssRNA) [Ib_S1_P5E.1_K5.1_C5.1_H5.1_A5.1_[A7T]_F5.1_[A10C]_T5.1]	23.8
ACAAACAUUAUAUAUUACGACAAAC (ssRNA) [Id_ii_S3_P4E.3_K4.2_C4.2_[C-2A]_H4.2_A4.1_F4.1_T4.2_[G10C]_[T11G]]	21.4
ACAAACCGACACUAUUAUGACAAAC (ssRNA) [Id_ii_S3_P4E.4_K4.3_C4.2_[T-1G]_H4.3_A4.1_F4.1_T4.2_[G10T]_[T11G]]	> 2300
ACAAACAUUAUAUAUUAGAACAAAC (ssRNA) [Id_ii_S3_P4E.3_K4.2_C4.2_[C-2A]_H4.2_A4.1_F4.1_T4.2_[T11A]]	12.8
ACAAACAUACACUAUUAUUACAAAC (ssRNA) [Id_ii_S3_P4E.4_K4.3_C4.2_[C-2A]_H4.3_A4.1_F4.1_T4.2_[G10T]]	600
ACAAACAAACACUAUUAUGACAAAC (ssRNA) [Id_ii_S3_P4E.4_K4.3_C4.2_[C-2A]_[T-1A]_H4.3_A4.1_F4.1_T4.2_[G10T]_[T11G]]	> 2300
ACAAACUCACACUAUUAAGACAAAC (ssRNA) [Id_ii_S3_P4E.4_K4.3_C4.2_[C-2T]_[T-1C]_H4.3_A4.1_F4.1_T4.2_[G10A]_[T11G]]	> 2300
ACAAACGCACACUAUUAGAACAAAC (ssRNA) [Id_ii_S3_P4E.4_K4.3_C4.2_[C-2G]_[T-1C]_H4.3_A4.1_F4.1_T4.2_[T11A]]	> 2300
ACAAACACACACUAUUAGCACAAAC (ssRNA) [Id_ii_S3_P4E.4_K4.3_C4.2_[C-2A]_[T-1C]_H4.3_A4.1_F4.1_T4.2_[T11C]]	> 2300
UCUCUUUGUACUAUUAUCUCUU (ssRNA) [Ie_S1_P4E.1_K4.1_C4.1_H4.1_[+4C]_A4.1_F4.1_T4.1]	4.49
ACAAACAAACACUAUUACCACAAAC (ssRNA) [Id_ii_S3_P4E.4_K4.3_C4.2_[C-2A]_[T-1A]_H4.3_A4.1_F4.1_T4.2_[G10C]_[T11C]]	> 2300
